In PMC5253658:
Each block holds one substance with its values, some of them ahead of it.

Experiments:
[1] = biological target: FAM-labelled unphosphorylated SCIMP Y96 peptide (amino acids 90-107) (mouse); assay: other fluorescence titration; FAM-labelled SCIMP Y96 peptides (aa 90-107) titrated with unlabelled TLR4-TIR; 25 °C, 30 mM Tris pH 7.4, 150 mM NaCl, 1 mM dithiothreitol; curve fit (Grafit)
[2] = biological target: FAM-labelled phosphorylated SCIMP Y96 peptide (amino acids 90-107) (mouse); assay: as above
TLR4 TIR domain, 670-835 = TLR4 TIR domain, 670-835 (UniProt Q9QUK6); assay: fluorescence titration of FAM-labelled peptide; details: reference: unphosphorylated Y96 peptide; sites Y96
TLR4 = TLR4 (UniProt Q9QUK6); assay: co-immunoprecipitation of SCIMP, TLR4 blot; details: reference: wild type SCIMP; sites Y96

Kd [1]: > 2500 nM
Kd [2]: 159 nM
Substance: His-TLR4-TIR (cytoplasmic TIR domain of mouse TLR4, amino acids 670-835) (from UniProt Q9QUK6 670-835) (domain or fragment)

KD (TLR4 TIR domain, 670-835): stronger; reference >2.5 μM
Substance: SCIMP 90-107 (from UniProt Q3UU41) pY96 peptide

binding against the reference (TLR4): lost
Substance: SCIMP (from UniProt Q3UU41) Y96F
